Reference: paper PMC12645917

What was measured:
[1] = target: PEDV S-Trimer (trimerized PEDV spike protein, 2P-stabilised, residues 1-1,319 with C-terminal GCN4 trimerization motif) (porcine epidemic diarrhea virus (PEDV)); assay: SEC; purified protein on Superose 6 increase 10/300 GL, 20 mM HEPES pH 7.6, 150 mM NaCl; single peak compared with the 669 kDa standard
[2] = target: TGEV S-Trimer (trimerized TGEV spike protein, 2P-stabilised, residues 1-1,388 with C-terminal GCN4 trimerization motif) (transmissible gastroenteritis virus (TGEV)); assay: as above

Substance: PEDV S-Trimer (trimerized PEDV spike protein, 2P-stabilised, residues 1-1,319 with C-terminal GCN4 trimerization motif) (natural protein)
- stoichiometry N [1]: 3

Substance: TGEV S-Trimer (trimerized TGEV spike protein, 2P-stabilised, residues 1-1,388 with C-terminal GCN4 trimerization motif) (natural protein)
- stoichiometry N [2]: 3
